Laboratory results reported in PMC8934283 (Nature, 2022).

Key:
Assay in all cases: cryo-EM structure
[1] = target: ribosomal protein uS21 (E. coli, UniProt P68679 1-71)
[2] = target: ribosomal protein uS2 (E. coli, UniProt P0A7V0 1-241)
[3] = target: ribosomal protein uS3 (E. coli, UniProt P0A7V3 1-233)
[4] = target: ribosomal protein uS5 (E. coli, UniProt P0A7W1 1-166)
[5] = target: ribosomal protein uS11 (E. coli, UniProt P0A7R9 1-129)

Measured: binding result

B1: E. coli SmrB inactive mutant (99DLH101-ALA) (enzyme)
chain: MKKKTTLSEEDQALFRQLMAGTRKIKQDTIVHRPQRKKISEVPVKRLIQEQADASHYFSDEFQPLLNTEGPVKYVRPDVSHFEAKKLRRGDYSPELFLALAGLTQLQAKQELGALIAACRREHVFCACVMHGHGKHILKQQTPLWLAQHPHVMAFHQAPKEYGGDAALLVLIEVEEWLPPEL
binds: all assays above
